According to paper PMC5026585 (ACS chemical biology, 2016):
Where a SMILES comes first, the peptide text is derived from it. [ ]: non-standard residue; d: D form. The star is where a group is joined. Benzoyl(4-tBu) = CC(C)(C)c1ccc(C(=O)*)cc1; Lys(Et2) = CCN(CC)CCCC[C@H](N)C(=O)O

Columns and labels:
[1] = molecular target: CBX7 chromodomain (chromobox protein homolog 7); assay: fluorescence polarisation
[2] = molecular target: CBX8 chromodomain (chromobox protein homolog 8); assay: fluorescence polarisation
[3] = molecular target: CDY1 chromodomain (Testis-specific chromodomain protein Y 1); assay: fluorescence polarisation
[4] = molecular target: CDYL chromodomain (Chromodomain Y-like protein); assay: fluorescence polarisation
[5] = molecular target: CDYL2 chromodomain (Chromodomain Y-like protein 2); assay: fluorescence polarisation
[6] = molecular target: MPP8 chromodomain (M-phase phosphoprotein 8); assay: fluorescence polarisation
CDYL chromodomains = assay: selectivity profile of UNC3866, CDYL chromodomains; type: binding; details: reduced potency relative to CBX7 and CBX4
chromodomain of MPP8 = assay: selectivity profile of UNC3866, MPP8; type: binding; details: reduced potency relative to CBX7 and CBX4
[7] = molecular target: PRC1 chromodomains (CBX2, -4, -6, -7, and -8); details: cited from earlier work

Kd [1] [nM] | Kd [2] [nM] | Kd [3] [nM] | Kd [4] [nM] | Kd [5] [nM] | Kd [6] [nM] | Compound | selectivity, CDYL chromodomains relative to CBX7 and CBX4 (CDYL chromodomains) [fold] | selectivity, MPP8 relative to CBX7 and CBX4 (chromodomain of MPP8) [fold] | Kd [7] [nM]
93 | 666 | 6410 | 1010 | 710 | 4790 | UNC3866-FAM (peptide) | – | – | –
– | – | – | – | – | – | CCN(CC)CCCC[C@H](NC(=O)[C@H](CC(C)C)NC(=O)[C@H](C)NC(=O)[C@H](Cc1ccccc1)NC(=O)c1ccc(C(C)(C)C)cc1)C(=O)N[C@@H](CO)C(=O)OC [UNC3866] ({Benzoyl(4-tBu)}-FAL[Lys(Et2)]S-OMe) | ~8 | ~30 | ~100
